Assay [1] has as its target T1, recombinant human proprotein convertase subtilisin/kexin 9 (hPCSK9), his-tagged (Homo sapiens, UniProt Q8NBP7).
T1 construct: human PCSK9, recombinant, his-tagged (Sinobiological); No catalogue number is printed; also called human PCSK9; source: bought: Sinobiological, China
The assay is described as follows: SPR; hPCSK9 (10 μg/mL in 10 mM sodium acetate pH 4.0) on flow cell 2 of a CM5 chip at 790 RU, flow cell 1 blank; VHH-based proteins injected in two-fold dilutions (five or three points); 25 °C, Biacore T200; binding 120 s, dissociation 300 s or 350 s; regeneration glycine pH 2.3. Particulars: both partners purified. (In general: SPR reads the build-up and loss of mass on a sensor chip optically.)

Assay [2] has as its target T1, recombinant human proprotein convertase …. The assay is described as above. Particulars: both partners purified. The source holds these as a separate data set.

These results are taken from article PMC9288512, “Development and characterization of a camelid derived antibody targeting a linear epitope in the hinge domain of human PCSK9 protein” (Scientific Reports, 2022).

Positions count from the first letter of the chain named.

T1 sequence (Q8NBP7 153-692): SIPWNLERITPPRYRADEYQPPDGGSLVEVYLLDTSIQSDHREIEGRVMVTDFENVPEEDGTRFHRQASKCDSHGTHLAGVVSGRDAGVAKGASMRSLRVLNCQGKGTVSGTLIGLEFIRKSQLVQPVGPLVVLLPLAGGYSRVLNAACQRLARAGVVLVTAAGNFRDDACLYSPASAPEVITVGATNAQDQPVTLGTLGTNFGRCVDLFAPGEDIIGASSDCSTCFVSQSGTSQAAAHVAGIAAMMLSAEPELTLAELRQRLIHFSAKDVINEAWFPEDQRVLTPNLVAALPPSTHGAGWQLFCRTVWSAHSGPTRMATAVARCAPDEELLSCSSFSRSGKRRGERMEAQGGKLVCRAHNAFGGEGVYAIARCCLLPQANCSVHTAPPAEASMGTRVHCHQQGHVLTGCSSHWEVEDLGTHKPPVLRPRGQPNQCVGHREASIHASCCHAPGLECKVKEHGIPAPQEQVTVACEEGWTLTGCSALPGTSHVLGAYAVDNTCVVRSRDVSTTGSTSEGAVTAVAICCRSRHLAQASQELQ

B1: VHH-Z1 (VHH-B11 humanized mutant) (VHH)
VHH: EVQLLESGGGLVQPGGSLRLSCTVSGYTYSSNCMGWFRQAPGKEHEGVSSIYIGGGSTYYADSVKGRFTISRDNSKNTLYLQMNSLRAEDTAVYYCAVGCQGLVDFGYWDQGTQVTVSS
notes: as the chain of m2, mutated at several of the 17 hotspots; has 80Pro in FR3; source: P. pastoris X33, secreted, purified
In the case of B1, the binding result in assay [1] is reported as “binds”.

B2: humanized VHH-B11 (Hu-B11), mutated at all 17 hotspots (VHH)
VHH: B1 VHH with T23A, V24A, F37V, E44G, H45L, G47W
notes: as the chain of m2 with 17 humanising mutations in FR1-3; source: P. pastoris X33, secreted, purified
In general, Kd refers to the concentration at which binding is half-saturated. With B2, the Kd in assay [1] was determined as 0.0397 µM.

B3: VHH-Z5 (VHH-B11 humanized mutant) (VHH)
VHH: B1 VHH with T23A, V24A, R72Q, L79V
notes: as the chain of m2, mutated at several of the 17 hotspots; has 87Val in FR3; source: P. pastoris X33, secreted, purified
As for B3, the binding result in assay [1] was “binds”.

B4: VHH-B11 (monovalent camelid nanobody against hPCSK9) (VHH)
VHH: QVQLQESGGGSVQAGGSLRLSCTVSGYTYSSNCMGWFRQAPGKEHEGVASIYIGGGSTYYADSVKGRFTISQDNAKNTVYLQMNSLKPEDTAMYYCAVGCQGLVDFGYWDQGTQVTVSS
notes: VHH-B11, llama nanobody; Also expressed in E. coli and HEK293F; also called VHH-B11 Ab; wild type VHH-B11
With B4, in assay [2], the Kd is roughly 0.0044 µM.

B5: VHH-Z3 (VHH-B11 humanized mutant) (VHH)
VHH: B1 VHH with T23A, V24A, S49A, R72Q, S75A
notes: as the chain of m2, mutated at several of the 17 hotspots; has 54Ala in FR2 and 83Ala in FR3; source: P. pastoris X33, secreted, purified
Turning to B5, the binding result in assay [1] was “binds”.
